PMC2898215

target: streptavidin (UniProt P22629 25-183); assay: capillary electrophoresis
Sequence (P22629 25-183): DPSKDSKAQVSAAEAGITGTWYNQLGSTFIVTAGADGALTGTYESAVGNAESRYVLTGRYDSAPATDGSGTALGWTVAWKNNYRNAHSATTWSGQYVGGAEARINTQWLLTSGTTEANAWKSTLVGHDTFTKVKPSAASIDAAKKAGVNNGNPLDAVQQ

Question: How did the binding signal turn out when CTGTGAGACGACGCACCGGTCGCAGGTTTTGTCTCACAG (structured_DNA) [NRR] was run?
Answer: 33 % bound

Question: Which binding signal does the source give for CATATTTAGCGCGTGTGTCGCAACACCTATATATG (structured_DNA) [S10-104 minimal] here?
Answer: 53 % bound

Question: With CACGTAACGCATACGCCGCAGTATTTATGTG (structured_DNA) [S10-101 minimal] as the binder, how does the binding signal read?
Answer: > 70 % bound

Question: For TAGGACAAACGCACACGGCGCAGTGTTTTGACCTA (structured_DNA) [S10-103 minimal], which binding signal is on record?
Answer: 48 % bound

Question: For CTTGTGTTTGCTCCCCGACGCAGGGGACACAAG (structured_DNA) [S10-115 minimal], which binding signal is on record?
Answer: 60 % bound

Question: Which binding signal does the source give for CAAACCTCGCGCCGATTGCAGGCAGGTTTG (structured_DNA) [S10-113 minimal] here?
Answer: 50 % bound
